# Residue numbers refer to the chain shown, from its start.
# B1: 9F9 humanized anti-VISTA antibody VH7/VL7 (antibody, V domains shown)
# VH: QVQFVQSGAEVKKPGASVKVSCKASGYTFTGYWMQWVKQAPGQRLEWIGAIYPGDGDTRYSQKFKGKVTLTADTSASTAYMELSSLRSEDTAVYYCARRDYGAWFAYWGQGTLVTVSS
# VL: DIKVTQSPSSLSASVGDRVTITCKASQDINSYLSWYQQKPGKAPKTLIYRANRLVDGVPSRFSGSGSGQEYTLTISSLQPEDFATYYCLQYDEFPYTFGQGTKVEIK
# notes: also called 9E9 anti-VISTA VH7/VL7
# B2: 9F9 humanized anti-VISTA antibody VH9/VL9 (antibody, V domains shown)
# VH: B1 VH with A16S, T30S, R44G, T74E, A76T
# VL: B1 VL with E70D, L73F, F83I
# notes: also called 9E9 anti-VISTA VH9/VL9
# B3: 9F9 humanized anti-VISTA antibody VH14/VL15 (antibody, V domains shown)
# VH: QVQLVQSGAEVMKPGASVKISCKASGYTFTGYWMQWVRQRPGQGLEWIGAIYPGDGDTRYSQKFKGKATMTADTSISTAYMELSRLRSDDTAVYYCARRDYGAWFAYWGAGTTVTVSS
# VL: DIVMTQSPSSLSASVGERVTITCKASQDINSYLSWFQQKPGKAPKTLIYRANRLVDGVPSRFSGSGSGTDFTFTISSVQPEDLAIYYCLQYDEFPYTFGGGTKLEIK
# notes: also called 9E9 anti-VISTA VH14/VL15
# B4: 9F9 humanized anti-VISTA antibody VH15/VL15 (antibody, V domains shown)
# VH: B3 VH with I20L, R38K, T91S
# VL: B3 VL
# notes: also called 9E9 anti-VISTA VH15/VL15
# B5: 9F9 parental anti-VISTA antibody (VH0/VL0) (antibody, V domains shown)
# VH: QVQFQQSGAELARPGASVKLSCKASGYTFTGYWMQWVKQRPGQGLEWIGAIYPGDGDTRYSQKFKGKVTLTADKSSSTAYMQLSSLASEDSAVYYCARRDYGAWFAYWGQGTLVTVSA
# VL: DIKVTQSPSSMYASLGERVTITCKASQDINSYLSWFQQKPGKSPKTLIYRANRLVDGVPSRFSGSGSGQDYSLTISSLDYEDMGIYYCLQYDEFPYTFGGGTKLEIK
# notes: also called 9E9 parental antibody; parental 9F9 (VH0/VL0)
# B6: 9F9 VH15/VL15 hIgG1-LALA (antibody, V domains shown)
# VH: B3 VH with I20L, R38K, T91S
# VL: B3 VL
# notes: also called 9E9 VH15/VL15 using the humanized hIgG1-LALA constant region
# B7: 9F9 VH15/VL15 hIgG2 (antibody, V domains shown)
# VH: B3 VH with I20L, R38K, T91S
# VL: B3 VL
# notes: also called 9E9 VH15/VL15 using the IgG2 constant region
# How the values were obtained:
# [1] = target: T1, mouse VISTA recombinant protein (Sino Biological Inc., Cat. #51550-M08H), biotinylated (mouse, UniProt Q9D659 33-191, biotinylated using EZ-LINK NHS-PEG4 biotin); experiment: BLI (Octet QKe), biotinylated VISTA on streptavidin sensors, antibody at 5 µg/ml
# T1 construct: Bought protein; also called mouse VISTA protein
# T1 sequence (looked up): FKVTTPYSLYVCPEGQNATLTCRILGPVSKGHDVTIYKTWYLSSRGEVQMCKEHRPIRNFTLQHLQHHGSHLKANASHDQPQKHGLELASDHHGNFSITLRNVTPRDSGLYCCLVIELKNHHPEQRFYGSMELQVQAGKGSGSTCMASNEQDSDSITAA
# Experimental: (§1) Method: The binding affinity of anti-VISTA antibodies was determined with bio-layer interferometry using Octet QKe (ForteBio). Human VISTA recombinant protein (Sino Biological Inc., Cat. #13482-H08H) mouse VISTA (Sino Biological Inc., Cat. #51550-M08H) were biotinylated using EZ-LINK NHS-PEG4 biotin (Thermo Fisher Scientific). Streptavidin biosensors (ForteBio) were used to load biotinylated VISTA protein (300 seconds at 5 μg/ml). The baseline measurement was stabilized for 60 seconds in 1× kinetics buffer (ForteBio) before anti-VISTA antibodies at 5 μg/ml were allowed to associate for 300 seconds with captured protein. Then the sensors were dissociated in 1× kinetics buffer for 600 seconds. Data analysis was performed on ForteBio Data Analysis HT 11.1 software.
# [2] = target: T2, Human VISTA recombinant protein (Sino Biological Inc., Cat. #13482-H08H), biotinylated (human, UniProt Q9H7M9 33-194, biotinylated using EZ-LINK NHS-PEG4 biotin); experiment: as above
# T2 construct: Bought protein
# T2 sequence: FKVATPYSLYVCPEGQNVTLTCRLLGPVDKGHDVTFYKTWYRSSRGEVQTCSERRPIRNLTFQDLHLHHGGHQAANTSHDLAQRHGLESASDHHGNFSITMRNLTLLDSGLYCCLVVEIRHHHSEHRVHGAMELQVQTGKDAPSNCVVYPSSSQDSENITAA
# Experimental: as §1
# [3] = target: T1, mouse VISTA recombinant protein (Sino …); experiment: BLI (Octet QKe), biotinylated VISTA on streptavidin sensors; the parental antibody is the affinity comparator
# Experimental: as §1
# [4] = target: T3, mouse VISTA expressed on Jurkat cells (mouse, UniProt Q9D659 33-308); experiment: flow cytometry on Jurkat cells expressing mouse VISTA (FIG. 3A-D); the parental antibody is the binding comparator
# T3 construct: whole, on cells; also called Jurkat-mouse VISTA; mouse VISTA expressing cells
# T3 sequence (looked up): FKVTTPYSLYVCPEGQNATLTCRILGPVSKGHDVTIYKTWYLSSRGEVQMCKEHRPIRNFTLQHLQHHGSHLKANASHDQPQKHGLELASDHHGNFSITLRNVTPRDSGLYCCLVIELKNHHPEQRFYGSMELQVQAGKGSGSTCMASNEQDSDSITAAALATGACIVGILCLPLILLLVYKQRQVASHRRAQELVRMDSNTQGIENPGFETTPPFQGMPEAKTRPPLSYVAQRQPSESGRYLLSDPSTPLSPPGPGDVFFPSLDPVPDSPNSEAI
# [5] = target: T3, mouse VISTA expressed on Jurkat cells; experiment: flow cytometry on Jurkat cells expressing mouse VISTA (FIG. 3E)
binder,measurement,setting,value
B1,binding result,[1],binds
B2,binding result,[1],binds
B3,binding result,[1],binds
B4,binding result,[1],binds
B5,binding result,[2],binds
same,binding result,[3],binds
same,binding result,[4],binds
B6,binding result,[5],binds
B7,binding result,[5],binds
